The target in test [1] is T1, human PD-1-His (human, UniProt Q15116 25-167, limits assumed).
T1 construct: Antigen of the Octet assays; not shown: His tag
Kind of test: Octet. Background: BLI is a label-free optical method that tracks binding on a fibre tip over time.

In test [2] the target is T1, human PD-1-His. Kind of test: Octet (BLI), AHC biosensors capture the bivalent mAb, dipped into multiple concentrations of PD-1; KDapp per legend.
Test [3] concerns the target T1, human PD-1-His. The experiment in a line: Octet (BLI), AHC capture of the bivalent mAb, PD-1 in solution.

17 molecules from US20240294593A1 (Genentech, published 2024) can be followed below.

T1 sequence (Q15116 25-167 limits assumed): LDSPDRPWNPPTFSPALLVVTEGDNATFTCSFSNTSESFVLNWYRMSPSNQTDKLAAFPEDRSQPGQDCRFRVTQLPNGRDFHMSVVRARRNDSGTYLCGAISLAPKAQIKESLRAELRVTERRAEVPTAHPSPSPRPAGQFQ

B1: H1.80_L1 (antibody, V domains shown)
VH: EVQLVESGGGLVQPGGSLRLSCAASGFTFSSFGMHWVRQAPGKGLEWVSYISSGSSVIYYADSVKGRFTISRDNAKNSLYLQMNSLRAEDTAVYYCARGGRLVWSPDYWGQGTLVTVSS
VL: DIVMTQSPDSLAVSLGERATINCKSSQSLLNSGNQKNYLTWYQQKPGQPPKLLIYWASTRESGVPDRFTGSGSGTDFTLTISSLQAEDVAVYYCQNDYSYPFTFGSGTKLEIKR
notes: also called VH-I61V; Kabat 56
The term koff denotes the rate constant with which the complex falls apart. The low end stands for slow dissociation, the high end for fast dissociation. As a reminder, the kon is the second-order rate constant of association. Higher therefore signals faster complex formation. For B1, in test [1], the Kd is 207 nM, the dissociation rate constant (koff) turned out to be 0.0466 s⁻¹ and the kon is 226000 M⁻¹ s⁻¹.

B2: H1.190_L1.1 (XENP32806) (antibody, human IgG1, kappa, V domains shown)
VH: EVQLVESGGGLVQPGGSLRLSCAASGFTFSSFGMHWVRQAPGKGLEWVSYISSGSSIIYYADSVKGRFTISRDNAKNSLYLQMNSLRAEDTAVYYCARGGALVFSPDYWGQGTLVTVSS
VL: DIVMTQSPDSLAVSLGERATINCKSSQSLLHSGNQKNYLTWYQQKPGQPPKLLIYWASTRESGVPDRFTGSGSGTDFTLTISSLQAEDVAVYYCQNDYSYPFTFGSGTKLEIKR
notes: VH substitution R109A/W112F (Xencor #); R97A/W100F (Kabat); also called mAb C[PD1]_H1.190_L1.1_IgG1_PVA_/S267K
Take B2: in test [2], the Kd came to 14.2 nM. Further, in test [3], the koff stood at 0.00271 s⁻¹ and the kon is 191000 M⁻¹ s⁻¹.

B3: H1.92_L1 (antibody, V domains shown)
VH: EVQLVESGGGLVQPGGSLRLSCAASGFTFSSFGMHWVRQAPGKGLEWVSYISSGSSITYYADSVKGRFTISRDNAKNSLYLQMNSLRAEDTAVYYCARGGRLVWSPDYWGQGTLVTVSS
VL: DIVMTQSPDSLAVSLGERATINCKSSQSLLNSGNQKNYLTWYQQKPGQPPKLLIYWASTRESGVPDRFTGSGSGTDFTLTISSLQAEDVAVYYCQNDYSYPFTFGSGTKLEIKR
notes: also called VH-I62T; Kabat 57
In test [1], B3 registered a Kd of 47.8 nM, a dissociation rate constant (koff) of 0.00851 s⁻¹ and a kon of 178000 M⁻¹ s⁻¹.

B4: H1.91_L1 (antibody, V domains shown)
VH: EVQLVESGGGLVQPGGSLRLSCAASGFTFSSFGMHWVRQAPGKGLEWVSYISSGSSIFYYADSVKGRFTISRDNAKNSLYLQMNSLRAEDTAVYYCARGGRLVWSPDYWGQGTLVTVSS
VL: DIVMTQSPDSLAVSLGERATINCKSSQSLLNSGNQKNYLTWYQQKPGQPPKLLIYWASTRESGVPDRFTGSGSGTDFTLTISSLQAEDVAVYYCQNDYSYPFTFGSGTKLEIKR
notes: also called VH-I62F; Kabat 57
For B4, in test [1], the Kd stood at 61 nM, the koff amounted to 0.00917 s⁻¹ and the association rate constant (kon) came out at 150000 M⁻¹ s⁻¹.

B5: H1.90_L1 (antibody, V domains shown)
VH: EVQLVESGGGLVQPGGSLRLSCAASGFTFSSFGMHWVRQAPGKGLEWVSYISSGSSILYYADSVKGRFTISRDNAKNSLYLQMNSLRAEDTAVYYCARGGRLVWSPDYWGQGTLVTVSS
VL: DIVMTQSPDSLAVSLGERATINCKSSQSLLNSGNQKNYLTWYQQKPGQPPKLLIYWASTRESGVPDRFTGSGSGTDFTLTISSLQAEDVAVYYCQNDYSYPFTFGSGTKLEIKR
notes: also called VH-I62L; Kabat 57
In the case of B5, in test [1], the Kd turned out to be 51.5 nM, the dissociation rate constant (koff) was determined as 0.00727 s⁻¹ and the kon worked out at 141000 M⁻¹ s⁻¹.

B6: H1.97_L1 (antibody, V domains shown)
VH: EVQLVESGGGLVQPGGSLRLSCAASGFTFSSFGMHWVRQAPGKGLEWVSYISSGSSIKYYADSVKGRFTISRDNAKNSLYLQMNSLRAEDTAVYYCARGGRLVWSPDYWGQGTLVTVSS
VL: DIVMTQSPDSLAVSLGERATINCKSSQSLLNSGNQKNYLTWYQQKPGQPPKLLIYWASTRESGVPDRFTGSGSGTDFTLTISSLQAEDVAVYYCQNDYSYPFTFGSGTKLEIKR
notes: also called VH-I62K; Kabat 57
In test [1], B6 gave a Kd of 114 nM, an off-rate (koff) of 0.0175 s⁻¹ and a kon of 154000 M⁻¹ s⁻¹.

B7: H1.192_L1.1 (XENP32808) (antibody, human IgG1, kappa, V domains shown)
VH: EVQLVESGGGLVQPGGSLRLSCAASGFTFSSFGMHWVRQAPGKGLEWVSYISSGSSIIYYADSVKGRFTISRDNAKNSLYLQMNSLRAEDTAVYYCARGGRLLFAPDYWGQGTLVTVSS
VL: DIVMTQSPDSLAVSLGERATINCKSSQSLLHSGNQKNYLTWYQQKPGQPPKLLIYWASTRESGVPDRFTGSGSGTDFTLTISSLQAEDVAVYYCQNDYSYPFTFGSGTKLEIKR
notes: VH substitution V111L/W112F/S113A (Xencor #); V99L/W100F/S100aA (Kabat); also called mAb C[PD1]_H1.192_L1.1_IgG1_PVA_/S267K
On to B7, for which the Kd in test [2] stood at 35.8 nM. In addition, in test [3], the off-rate (koff) came to 0.00317 s⁻¹ and the association rate constant (kon) was 88500 M⁻¹ s⁻¹.

B8: H1.191_L1.1 (XENP32807) (antibody, human IgG1, kappa, V domains shown)
VH: EVQLVESGGGLVQPGGSLRLSCAASGFTFSSFGMHWVRQAPGKGLEWVSYISSGSSIIYYADSVKGRFTISRDNAKNSLYLQMNSLRAEDTAVYYCARGGRLTFSPDYWGQGTLVTVSS
VL: DIVMTQSPDSLAVSLGERATINCKSSQSLLHSGNQKNYLTWYQQKPGQPPKLLIYWASTRESGVPDRFTGSGSGTDFTLTISSLQAEDVAVYYCQNDYSYPFTFGSGTKLEIKR
notes: VH substitution V111T/W112F (Xencor #); V99T/W100F (Kabat); also called mAb C[PD1]_H1.191_L1.1_IgG1_PVA_/S267K
For the molecule B8, in test [2], the Kd was found to be 36 nM. Further, in test [3], the koff is 0.00382 s⁻¹ and the kon amounted to 106000 M⁻¹ s⁻¹.

B9: H1.93_L1 (antibody, V domains shown)
VH: EVQLVESGGGLVQPGGSLRLSCAASGFTFSSFGMHWVRQAPGKGLEWVSYISSGSSIWYYADSVKGRFTISRDNAKNSLYLQMNSLRAEDTAVYYCARGGRLVWSPDYWGQGTLVTVSS
VL: DIVMTQSPDSLAVSLGERATINCKSSQSLLNSGNQKNYLTWYQQKPGQPPKLLIYWASTRESGVPDRFTGSGSGTDFTLTISSLQAEDVAVYYCQNDYSYPFTFGSGTKLEIKR
notes: also called VH-I62W; Kabat 57
Consider B9, for which, in test [1], the Kd came out at 31 nM, the dissociation rate constant (koff) stood at 0.00528 s⁻¹ and the on-rate constant (kon) is 170000 M⁻¹ s⁻¹.

B10: H1.96_L1 (antibody, V domains shown)
VH: EVQLVESGGGLVQPGGSLRLSCAASGFTFSSFGMHWVRQAPGKGLEWVSYISSGSSIEYYADSVKGRFTISRDNAKNSLYLQMNSLRAEDTAVYYCARGGRLVWSPDYWGQGTLVTVSS
VL: DIVMTQSPDSLAVSLGERATINCKSSQSLLNSGNQKNYLTWYQQKPGQPPKLLIYWASTRESGVPDRFTGSGSGTDFTLTISSLQAEDVAVYYCQNDYSYPFTFGSGTKLEIKR
notes: also called VH-I62E; Kabat 57
In test [1], B10 yielded a Kd of 41.6 nM, an off-rate constant (koff) of 0.00751 s⁻¹ and an on-rate constant (kon) of 181000 M⁻¹ s⁻¹.

B11: H1.99_L1 (antibody, V domains shown)
VH: EVQLVESGGGLVQPGGSLRLSCAASGFTFSSFGMHWVRQAPGKGLEWVSYISSGSSIIHYADSVKGRFTISRDNAKNSLYLQMNSLRAEDTAVYYCARGGRLVWSPDYWGQGTLVTVSS
VL: DIVMTQSPDSLAVSLGERATINCKSSQSLLNSGNQKNYLTWYQQKPGQPPKLLIYWASTRESGVPDRFTGSGSGTDFTLTISSLQAEDVAVYYCQNDYSYPFTFGSGTKLEIKR
notes: also called VH-Y63H; Kabat 58
With B11, in test [1], the Kd worked out at 261 nM, the koff is 0.0651 s⁻¹ and the on-rate constant (kon) came to 250000 M⁻¹ s⁻¹.

B12: H1.85_L1 (antibody, V domains shown)
VH: EVQLVESGGGLVQPGGSLRLSCAASGFTFSSFGMHWVRQAPGKGLEWVSYISSGSSAIYYADSVKGRFTISRDNAKNSLYLQMNSLRAEDTAVYYCARGGRLVWSPDYWGQGTLVTVSS
VL: DIVMTQSPDSLAVSLGERATINCKSSQSLLNSGNQKNYLTWYQQKPGQPPKLLIYWASTRESGVPDRFTGSGSGTDFTLTISSLQAEDVAVYYCQNDYSYPFTFGSGTKLEIKR
notes: also called VH-I61A; Kabat 56
Consider B12, for which, in test [1], the Kd was found to be 132 nM, the koff was 0.0618 s⁻¹ and the kon stood at 467000 M⁻¹ s⁻¹.

B13: H1.94_L1 (antibody, V domains shown)
VH: EVQLVESGGGLVQPGGSLRLSCAASGFTFSSFGMHWVRQAPGKGLEWVSYISSGSSIAYYADSVKGRFTISRDNAKNSLYLQMNSLRAEDTAVYYCARGGRLVWSPDYWGQGTLVTVSS
VL: DIVMTQSPDSLAVSLGERATINCKSSQSLLNSGNQKNYLTWYQQKPGQPPKLLIYWASTRESGVPDRFTGSGSGTDFTLTISSLQAEDVAVYYCQNDYSYPFTFGSGTKLEIKR
notes: also called VH-I62A; Kabat 57
B13: in test [1], the Kd stood at 80.6 nM, the koff turned out to be 0.0161 s⁻¹ and the on-rate constant (kon) was determined as 200000 M⁻¹ s⁻¹.

B14: H1.89_L1 (antibody, V domains shown)
VH: EVQLVESGGGLVQPGGSLRLSCAASGFTFSSFGMHWVRQAPGKGLEWVSYISSGSSIVYYADSVKGRFTISRDNAKNSLYLQMNSLRAEDTAVYYCARGGRLVWSPDYWGQGTLVTVSS
VL: DIVMTQSPDSLAVSLGERATINCKSSQSLLNSGNQKNYLTWYQQKPGQPPKLLIYWASTRESGVPDRFTGSGSGTDFTLTISSLQAEDVAVYYCQNDYSYPFTFGSGTKLEIKR
notes: also called VH-I62V; Kabat 57
On to B14, for which, in test [1], the Kd came to 43.2 nM, the koff came out at 0.00669 s⁻¹ and the kon turned out to be 155000 M⁻¹ s⁻¹.

B15: H1.95_L1 (antibody, V domains shown)
VH: EVQLVESGGGLVQPGGSLRLSCAASGFTFSSFGMHWVRQAPGKGLEWVSYISSGSSINYYADSVKGRFTISRDNAKNSLYLQMNSLRAEDTAVYYCARGGRLVWSPDYWGQGTLVTVSS
VL: DIVMTQSPDSLAVSLGERATINCKSSQSLLNSGNQKNYLTWYQQKPGQPPKLLIYWASTRESGVPDRFTGSGSGTDFTLTISSLQAEDVAVYYCQNDYSYPFTFGSGTKLEIKR
notes: also called VH-I62N; Kabat 57
In test [1], B15 registered a Kd of 73.4 nM, a koff of 0.0119 s⁻¹ and an on-rate (kon) of 162000 M⁻¹ s⁻¹.

B16: H1.189_L1.1 (XENP32805) (antibody, human IgG1, kappa, V domains shown)
VH: EVQLVESGGGLVQPGGSLRLSCAASGFTFSSFGMHWVRQAPGKGLEWVSYISSGSSIIYYADSVKGRFTISRDNAKNSLYLQMNSLRAEDTAVYYCARGGRRVFTPDYWGQGTLVTVSS
VL: DIVMTQSPDSLAVSLGERATINCKSSQSLLHSGNQKNYLTWYQQKPGQPPKLLIYWASTRESGVPDRFTGSGSGTDFTLTISSLQAEDVAVYYCQNDYSYPFTFGSGTKLEIKR
notes: VH substitution L110R/W112F/S113T (Xencor #); L98R/W100F/S100aT (Kabat); also called mAb C[PD1]_H1.189_L1.1_IgG1_PVA_/S267K
Take B16: in test [2], the Kd came to 23.7 nM. In test [3], this molecule yielded a koff of 0.00199 s⁻¹ and a kon of 83800 M⁻¹ s⁻¹.

B17: H1.193_L1.1 (XENP32809) (antibody, human IgG1, kappa, V domains shown)
VH: EVQLVESGGGLVQPGGSLRLSCAASGFTFSSFGMHWVRQAPGKGLEWVSYISSGSSIIYYADSVKGRFTISRDNAKNSLYLQMNSLRAEDTAVYYCARGGRQLFSPDYWGQGTLVTVSS
VL: DIVMTQSPDSLAVSLGERATINCKSSQSLLHSGNQKNYLTWYQQKPGQPPKLLIYWASTRESGVPDRFTGSGSGTDFTLTISSLQAEDVAVYYCQNDYSYPFTFGSGTKLEIKR
notes: VH substitution L110Q/V111L/W112F (Xencor #); L98Q/V99L/W100F (Kabat); also called mAb C[PD1]_H1.193_L1.1_IgG1_PVA_/S267K
Molecule B17 returned a Kd in test [2] of 33.8 nM. In test [3], this molecule showed an off-rate constant (koff) of 0.00391 s⁻¹ and an on-rate constant (kon) of 116000 M⁻¹ s⁻¹.
